Settings: Homo sapiens; pH 2.7; Thermal; DSC; glycine 0.05 M; reversible: yes; whole UniProt chain shown

B1: Lysozyme C wild type, P61626 (protein)
chain: MKALIVLGLVLLSVTVQGKVFERCELARTLKRLGMDGYRGISLANWMCLAKWESGYNTRATNYNAGDRSTDYGIFQINSRYWCNDGKTPGAVNACHLSCSALLQDNIADAVACAKRVVRDPQGIRAWVAWRNRCQNRDVRQYVQGCGV
  Tm: 64.9 °C
  heat capacity change of unfolding: 1.58 kcal/mol/K
  unfolding enthalpy (calorimetric): 114 kcal/mol
  unfolding enthalpy (van 't Hoff): 120 kcal/mol

From FireProtDB (doi:10.1006/jmbi.1995.0599)
